Assay results published in publication PMC11915804, “In situ structures of the contractile nanomachine myophage Mu in both its extended and contracted states” (Journal of Virology, 2025).

B1: baseplate wedge protein 1 (BW1) gp46 (natural protein, phage Mu, UniProt Q9T1V3 1-145, looked up)
chain: MTDLAIIWTNGRGDIAQDGIDMLTDDSLTTDVTISLFTDRRALDSDTLPDGSDDRRGWWGDSYRDRPIGSRLWLLSREKATPDTLERARGYAEEALEWLKTAGRVSAINVRAEQLHQGWLYLYIALTLPDGSVIPYEFKAAFNGV
notes: baseplate wedge protein 1 gp46 of myophage Mu, as it stands in the virion; One copy in each of the six wedges; Model deposited here; source: phage Mu virions grown on E. coli (ATCC 23724), purified (PEG 8000/NaCl precipitation, CsCl gradient)
B2: baseplate wedge protein 3 (BW3) gp48 (natural protein, phage Mu, UniProt Q9T1V1 1-180, looked up)
chain: MAVTPWQTAFLQLLPSGLAWNKSPDSKLSALAQAISDVIATAADDARQMLRERFPSTSRWYLGEWESFLGLPDCTSENGTLSERQRAAANKMRMTGNLSRRFYEWLAAQYGFTVRLTDSTEGQWVTQVNIYGIKNYRNATVLDNVLTPLRVYESGALECLLEKYKPAHQIYKFVYHDGDN
notes: baseplate wedge protein 3 gp48 of myophage Mu, as it stands in the virion; One copy in each of the six wedges; Model deposited here; source: phage Mu virions grown on E. coli (ATCC 23724), purified (PEG 8000/NaCl precipitation, CsCl gradient)
B3: spike protein gp45 (natural protein, phage Mu, UniProt Q9T1V4 1-197, looked up)
chain: MERVNDSALNRLLTPLMRRVRLMLARAVVNVINDGRKVQNLQVGLLDDEESDEVERLQNYGHFSVPLPGAEALIACVGAQRDQGIAVVVEDRRYRPTNLEPGDAGIYHHEGHRIRLTKDGRCIITCKTVEVYADESMTVDTPRTTFTGDVEIQKGLGVKGKSQFDSNITAPDAIINGKSTDKHIHRGDSGGTTGPMQ
notes: baseplate spike protein gp45 of myophage Mu, as it stands in the virion; Trimer; Model deposited here; source: phage Mu virions grown on E. coli (ATCC 23724), purified (PEG 8000/NaCl precipitation, CsCl gradient)

What was measured:
Test in all cases: cryo-EM structure; purified phage Mu virions in the extended state (native phage) in phage buffer (10 mM MgCl2, 5 mM NaCl, 10 mM Tris-HCl, pH 7.4); icosahedral, symmetry-mismatch and local reconstruction; 3.2 Å (3-fold capsid), 3.4 Å (portal-adaptor), 3.5 Å (terminator-tail), 3.3 Å (baseplate)
[1] = biological target: T1, tube initiator protein gp43 (phage Mu, UniProt P08557 1-495); details: both partners purified
T1 construct: tube initiator protein gp43 (N protein, DNA circularization protein) of myophage Mu, as it stands in the virion; Hexamer; Model deposited here; also called N protein; DNA circularization protein; source: phage Mu virions grown on E. coli (ATCC 23724), purified (PEG 8000/NaCl precipitation, CsCl gradient)
T1 sequence (looked up): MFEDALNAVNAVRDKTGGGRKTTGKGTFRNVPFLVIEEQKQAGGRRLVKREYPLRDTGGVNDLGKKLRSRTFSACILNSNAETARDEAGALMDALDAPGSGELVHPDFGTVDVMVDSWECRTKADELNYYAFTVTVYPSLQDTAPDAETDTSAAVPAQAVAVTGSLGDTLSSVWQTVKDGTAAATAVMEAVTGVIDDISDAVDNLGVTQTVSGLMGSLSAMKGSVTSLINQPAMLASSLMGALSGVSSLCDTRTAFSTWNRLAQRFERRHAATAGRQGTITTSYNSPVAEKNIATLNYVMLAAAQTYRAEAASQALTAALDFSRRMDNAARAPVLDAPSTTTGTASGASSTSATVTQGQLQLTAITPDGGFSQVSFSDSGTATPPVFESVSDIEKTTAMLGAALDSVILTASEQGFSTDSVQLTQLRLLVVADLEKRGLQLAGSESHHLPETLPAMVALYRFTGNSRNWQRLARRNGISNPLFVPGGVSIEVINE

[2] = biological target: T2, baseplate wedge protein 2 (BW2) gp47 (phage Mu, UniProt Q9T1V2 1-360); details: both partners purified
T2 construct: baseplate wedge protein 2 gp47 of myophage Mu, as it stands in the virion; Two conformers (BW2-i, BW2-o) in each of the six wedges; Model deposited here; also called BW2-i; BW2-o; source: phage Mu virions grown on E. coli (ATCC 23724), purified (PEG 8000/NaCl precipitation, CsCl gradient)
T2 sequence (looked up): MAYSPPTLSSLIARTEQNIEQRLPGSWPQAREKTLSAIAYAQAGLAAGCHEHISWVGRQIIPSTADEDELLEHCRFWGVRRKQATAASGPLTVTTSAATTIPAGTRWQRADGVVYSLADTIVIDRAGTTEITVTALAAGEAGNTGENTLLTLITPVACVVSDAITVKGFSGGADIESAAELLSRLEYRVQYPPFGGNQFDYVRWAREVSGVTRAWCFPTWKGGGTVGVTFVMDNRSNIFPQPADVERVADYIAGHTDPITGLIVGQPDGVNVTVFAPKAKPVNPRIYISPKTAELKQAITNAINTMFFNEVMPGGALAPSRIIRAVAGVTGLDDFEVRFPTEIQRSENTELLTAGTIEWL

[3] = biological target: B2; details: both partners purified
tail sheath protein gp39 = biological target: T3, tail sheath protein gp39 (phage Mu, UniProt P79678 1-495); details: both partners purified
T3 construct: tail sheath protein gp39 of myophage Mu, as it stands in the virion; Hexameric rings, 30 of them stacked in the tail; Model deposited here; source: phage Mu virions grown on E. coli (ATCC 23724), purified (PEG 8000/NaCl precipitation, CsCl gradient)
T3 sequence (looked up): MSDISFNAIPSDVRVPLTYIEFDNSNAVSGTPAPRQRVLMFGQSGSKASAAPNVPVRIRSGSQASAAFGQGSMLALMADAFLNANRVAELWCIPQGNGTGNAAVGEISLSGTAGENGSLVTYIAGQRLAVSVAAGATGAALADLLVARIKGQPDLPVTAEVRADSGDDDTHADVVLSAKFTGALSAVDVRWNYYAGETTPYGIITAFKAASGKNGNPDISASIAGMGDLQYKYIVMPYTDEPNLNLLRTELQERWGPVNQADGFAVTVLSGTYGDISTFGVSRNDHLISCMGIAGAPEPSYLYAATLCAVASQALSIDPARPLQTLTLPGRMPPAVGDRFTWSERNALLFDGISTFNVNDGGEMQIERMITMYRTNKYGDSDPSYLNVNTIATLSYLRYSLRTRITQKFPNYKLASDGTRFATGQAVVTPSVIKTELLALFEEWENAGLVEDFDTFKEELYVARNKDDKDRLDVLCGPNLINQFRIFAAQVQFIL

[4] = biological target: T4, G(+) type fiber protein gp49 (phage Mu, UniProt Q9T1V0 1-504); details: both partners purified
T4 construct: G(+) type tail fiber protein gp49 of myophage Mu, as it stands in the virion; only the N-terminus was modelled; Trimer; six fibers in the baseplate; Model deposited here; source: phage Mu virions grown on E. coli (ATCC 23724), purified (PEG 8000/NaCl precipitation, CsCl gradient)
T4 sequence (looked up): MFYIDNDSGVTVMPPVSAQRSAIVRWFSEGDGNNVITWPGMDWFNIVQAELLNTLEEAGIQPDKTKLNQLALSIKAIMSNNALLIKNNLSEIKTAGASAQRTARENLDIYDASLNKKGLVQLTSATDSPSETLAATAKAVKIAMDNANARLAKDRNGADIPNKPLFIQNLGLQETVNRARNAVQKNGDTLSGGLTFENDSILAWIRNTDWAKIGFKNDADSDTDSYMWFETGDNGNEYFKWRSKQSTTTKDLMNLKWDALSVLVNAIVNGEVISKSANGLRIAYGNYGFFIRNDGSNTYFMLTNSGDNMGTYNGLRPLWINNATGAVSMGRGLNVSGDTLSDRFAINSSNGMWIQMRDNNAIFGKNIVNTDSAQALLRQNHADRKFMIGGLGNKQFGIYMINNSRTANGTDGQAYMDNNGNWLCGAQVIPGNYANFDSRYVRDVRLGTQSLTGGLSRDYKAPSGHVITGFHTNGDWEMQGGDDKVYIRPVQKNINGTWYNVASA

hub protein gp44 = biological target: T5, hub protein gp44 (phage Mu, UniProt P08558 1-379); details: both partners purified
T5 construct: baseplate hub protein gp44 of myophage Mu, as it stands in the virion; Trimer; Model deposited here; source: phage Mu virions grown on E. coli (ATCC 23724), purified (PEG 8000/NaCl precipitation, CsCl gradient)
T5 sequence (looked up): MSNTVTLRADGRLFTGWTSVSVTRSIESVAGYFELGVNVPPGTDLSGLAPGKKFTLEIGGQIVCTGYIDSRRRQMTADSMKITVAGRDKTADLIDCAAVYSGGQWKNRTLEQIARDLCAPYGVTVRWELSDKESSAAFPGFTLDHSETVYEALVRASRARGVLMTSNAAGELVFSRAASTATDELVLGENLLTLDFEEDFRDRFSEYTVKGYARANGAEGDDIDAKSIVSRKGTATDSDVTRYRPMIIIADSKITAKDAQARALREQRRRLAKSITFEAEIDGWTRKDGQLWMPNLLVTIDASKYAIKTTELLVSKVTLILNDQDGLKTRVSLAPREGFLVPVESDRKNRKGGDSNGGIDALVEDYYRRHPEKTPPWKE

[5] = biological target: the molecule itself

Row | Binder | binding result [1] | binding result [2] | binding result [3] | binding result (tail sheath protein gp39) | binding result [4] | binding result (hub protein gp44) | stoichiometry N [5]
1 | B1 | binds | binds | binds | binds | – | – | –
2 | B2 | binds | binds | – | – | binds | – | –
3 | B3 | – | – | – | – | – | binds | 3
